Source: patent US20200031915A1, “IMMUNOGLOBULIN-BINDING PEPTIDE WITH IMPROVED STABILITY” (KANEKA CORPORATION, priority 2017, published 2020)

Target: T1, Fab fragment of humanized monoclonal IgG (Infliximab) (Homo sapiens, UniProt P01834+P01857)
T1 construct: fragmented into a Fab fragment and an Fc fragment by using papain, and the Fc fragment and Fab fragment were purified; purchased Mitsubishi Tanabe Pharma Corporation Remicade (Infliximab)
Assay: Residual Fab-binding activity of GB1#-N08K after alkali treatment (Biacore SPR)
Settings: 15 mM NaOH final (0.1 mL of 45 mM NaOH added to 0.2 mL of 20 μM peptide), 25° C., 2 hours; ratio to before treatment as 100%; N=4

T1 sequence (P01857 with tags, fused parts or gaps limits assumed, other chains not shown): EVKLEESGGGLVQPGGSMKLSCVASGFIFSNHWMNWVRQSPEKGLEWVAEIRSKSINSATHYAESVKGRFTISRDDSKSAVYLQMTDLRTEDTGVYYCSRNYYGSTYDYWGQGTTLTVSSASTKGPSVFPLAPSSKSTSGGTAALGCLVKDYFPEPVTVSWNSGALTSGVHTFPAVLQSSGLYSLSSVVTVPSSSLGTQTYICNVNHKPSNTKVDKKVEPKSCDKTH

Row | Substance | residual binding activity to Fab after alkali treatment [%]
1 | GB1#-N08A: Comparative example: GB1#-Cont (SEQ ID NO: 4) with mutation N08A; amino acid SEQ ID NO: 41 (TTYKLILAGKTLTGYTTTIAVDAATAEKVLKQFANDNGVDGEWTYDDATKTFTVTE; Altered SpG) | 68
2 | GB1#-N08K: GB1#-Cont (SEQ ID NO: 4), strong binding ability to Fab, with mutation N08K introduced; amino acid SEQ ID NO: 32 (TTYKLILKGKTLTGYTTTIAVDAATAEKVLKQFANDNGVDGEWTYDDATKTFTVTE; oligo DNA) | 80
